Consider four proteins from publication PMC7476758, “Underground isoleucine biosynthesis pathways in E. coli” (eLife, 2020).

What all share (format): biochemical, Escherichia coli
Substrate in data set [1]: CCC(=O)SCCNC(=O)CCNC(=O)[C@H](O)C(C)(C)COP(=O)(O)OP(=O)(O)OC[C@H]1O[C@@H](n2cnc3c(N)ncnc32)[C@H](O)[C@@H]1OP(=O)(O)O
The experiment in a line: purified protein. The note with it: glycyl radical (activated by PFL-AE).

Substrate in data set [2]: O=CO
The experiment in a line: Michaelis-Menten kinetics of purified enzyme, LDH-coupled NADH assay (KM). The note with it: glycyl radical (activated by PFL-AE).

Substrate in data set [3]: N[C@@H](CCOC(=O)CCC(=O)O)C(=O)O
The experiment in a line: purified protein. Particulars: pyridoxal-5'-phosphate.

Substrate in data set [4]: CCC(=O)SCCNC(=O)CCNC(=O)[C@H](O)C(C)(C)COP(=O)(O)OP(=O)(O)OC[C@H]1O[C@@H](n2cnc3c(N)ncnc32)[C@H](O)[C@@H]1OP(=O)(O)O
The experiment in a line: Michaelis-Menten kinetics of purified enzyme, LDH-coupled NADH assay (KM). The note with it: glycyl radical (activated by PFL-AE).

Substrate in data set [5]: N[C@@H](CO)C(=O)O
The experiment in a line: Michaelis-Menten kinetics of purified enzyme, DTNB assay (KM).

Substrate in data set [6]: CC(=O)SCCNC(=O)CCNC(=O)[C@H](O)C(C)(C)COP(=O)(O)OP(=O)(O)OC[C@H]1O[C@@H](n2cnc3c(N)ncnc32)[C@H](O)[C@@H]1OP(=O)(O)O
The experiment in a line: Michaelis-Menten kinetics of purified enzyme, DTNB assay of released CoA (KM).

B1: pyruvate formate-lyase (PFL, PflB) (Escherichia coli K-12) (protein)
chain: SELNEKLATAWEGFTKGDWQNEVNVRDFIQKNYTPYEGDESFLAGATEATTTLWDKVMEGVKLENRTHAPVDFDTAVASTITSHDAGYINKQLEKIVGLQTEAPLKRALIPFGGIKMIEGSCKAYNRELDPMIKKIFTEYRKTHNQGVFDVYTPDILRCRKSGVLTGLPDAYGRGRIIGDYRRVALYGIDYLMKDKLAQFTSLQADLENGVNLEQTIRLREEIAEQHRALGQMKEMAAKYGYDISGPATNAQEAIQWTYFGYLAAVKSQNGAAMSFGRTSTFLDVYIERDLKAGKITEQEAQEMVDHLVMKLRMVRFLRTPEYDELFSGDPIWATESIGGMGLDGRTLVTKNSFRFLNTLYTMGPSPEPNMTILWSEKLPLNFKKFAAKVSIDTSSLQYENDDLMRPDFNNDDYAIACCVSPMIVGKQMQFFGARANLAKTMLYAINGGVDEKLKMQVGPKSEPIKGDVLNYDEVMERMDHFMDWLAKQYITALNIIHYMHDKYSYEASLMALHDRDVIRTMACGIAGLSVAADSLSAIKYAKVKPIRDEDGLAIDFEIEGEYPQFGNNDPRVDDLAVDLVERFMKKIQKLHTYRDAIPTQSVLTITSNVVYGKKTGNTPDGRRAGAPFGPGANPMHGRDQKGAVASLTSVAKLPFAYAKDGISYTFSIVPNALGKDDEVRKTNLAGLMDGYFHHEASIEGGQHLNVNVMNREMLLDAMENPEKYPQLTIRVSGYAVRFNSLTKEQQQDVITRTFTQSM
The Km is the substrate concentration at which the rate is half of its maximum. The Vmax is the top rate of the reaction or transport when substrate is in excess. The kcat is the maximal rate divided by the concentration of active sites. As to B1, in data set [1], the Km is 830 ± 580 µM, the Vmax was 1.1 µmol/min/mg and the kcat was 1.7 ± 0.9 s⁻¹. Besides, in data set [2], the Km is 69000 ± 11000 µM, the Vmax is 0.59 µmol/min/mg and the kcat is 0.9 ± 0.05 s⁻¹.

B2: cystathionine γ-synthase (MetB) (Escherichia coli K-12) (protein)
chain: MTRKQATIAVRSGLNDDEQYGCVVPPIHLSSTYNFTGFNEPRAHDYSRRGNPTRDVVQRALAELEGGAGAVLTNTGMSAIHLVTTVFLKPGDLLVAPHDCYGGSYRLFDSLAKRGCYRVLFVDQGDEQALRAALAEKPKLVLVESPSNPLLRVVDIAKICHLAREVGAVSVVDNTFLSPALQNPLALGADLVLHSCTKYLNGHSDVVAGVVIAKDPDVVTELAWWANNIGVTGGAFDSYLLLRGLRTLVPRMELAQRNAQAIVKYLQTQPLVKKLYHPSLPENQGHEIAARQQKGFGAMLSFELDGDEQTLRRFLGGLSLFTLAESLGGVESLISHAATMTHAGMAPEARAAAGISETLLRISTGIEDGEDLIADLENGFRAANKG
Consider B2, for which, in data set [3], the Km was 600 ± 80 µM.

B3: TdcE (2-ketobutyrate formate-lyase) (Escherichia coli K-12) (protein)
chain: MKVDIDTSDKLYADAWLGFKGTDWKNEINVRDFIQHNYTPYEGDESFLAEATPATTELWEKVMEGIRIENATHAPVDFDTNIATTITAHDAGYINQPLEKIVGLQTDAPLKRALHPFGGINMIKSSFHAYGREMDSEFEYLFTDLRKTHNQGVFDVYSPDMLRCRKSGVLTGLPDGYGRGRIIGDYRRVALYGISYLVRERELQFADLQSRLEKGEDLEATIRLREELAEHRHALLQIQEMAAKYGFDISRPAQNAQEAVQWLYFAYLAAVKSQNGGAMSLGRTASFLDIYIERDFKAGVLNEQQAQELIDHFIMKIRMVRFLRTPEFDSLFSGDPIWATEVIGGMGLDGRTLVTKNSFRYLHTLHTMGPAPEPNLTILWSEELPIAFKKYAAQVSIVTSSLQYENDDLMRTDFNSDDYAIACCVSPMVIGKQMQFFGARANLAKTLLYAINGGVDEKLKIQVGPKTAPLMDDVLDYDKVMDSLDHFMDWLAVQYISALNIIHYMHDKYSYEASLMALHDRDVYRTMACGIAGLSVATDSLSAIKYARVKPIRDENGLAVDFEIDGEYPQYGNNDERVDSIACDLVERFMKKIKALPTYRNAVPTQSILTITSNVVYGQKTGNTPDGRRAGTPFAPGANPMHGRDRKGAVASLTSVAKLPFTYAKDGISYTFSIVPAALGKEDPVRKTNLVGLLDGYFHHEADVEGGQHLNVNVMNREMLLDAIEHPEKYPNLTIRVSGYAVRFNALTREQQQDVISRTFTQAL
For the protein B3, in data set [4], the Michaelis constant (Km) turned out to be 520 ± 81 µM, the Vmax is 2.1 µmol/min/mg and the kcat stood at 3.2 ± 0.2 s⁻¹. In data set [2], the Km came out at 20000 ± 3000 µM, the Vmax stood at 1.8 µmol/min/mg and the kcat was determined as 2.7 ± 0.1 s⁻¹.

B4: serine acetyltransferase (CysE) (Escherichia coli K-12) (protein)
chain: MSCEELEIVWNNIKAEARTLADCEPMLASFYHATLLKHENLGSALSYMLANKLSSPIMPAIAIREVVEEAYAADPEMIASAACDIQAVRTRDPAVDKYSTPLLYLKGFHALQAYRIGHWLWNQGRRALAIFLQNQVSVTFQVDIHPAAKIGRGIMLDHATGIVVGETAVIENDVSILQSVTLGGTGKSGGDRHPKIREGVMIGAGAKILGNIEVGRGAKIGAGSVVLQPVPPHTTAAGVPARIVGKPDSDKPSMDMDQHFNGINHTFEYGDGI
With B4, the Km in data set [5] was found to be 800 ± 300 µM; in data set [6] it was 600 ± 200 µM.
